Results published in publication PMC8155463.

Biological target: ZF-AS, fusion protein containing ZF5.3 and human argininosuccinate synthetase (human)
Assay: SEC

“ZF-AS, fusion protein containing ZF5.3 and human argininosuccinate synthetase (enzyme)” was tested. Which stoichiometry N did it give?
The stoichiometry N was 4.
